Measured values published in patent US6685932.

How the values were obtained:
[1] = biological target: T1, extracellular domain of the IL-4Rα (IL-4 binding protein), P24394; assay: biosensor (BIA2000), IL4BP biotinylated at Cys-206 on a streptavidin matrix, 25 C
[2] = biological target: T1, extracellular domain of the IL-4Rα …; assay: biosensor (BIA2000), IL4BP on a streptavidin matrix, room temperature
[3] = biological target: T1, extracellular domain of the IL-4Rα …; assay: biosensor (BIA2000), compared with MAR-IL4

T1 sequence (P24394 26-232 limits assumed): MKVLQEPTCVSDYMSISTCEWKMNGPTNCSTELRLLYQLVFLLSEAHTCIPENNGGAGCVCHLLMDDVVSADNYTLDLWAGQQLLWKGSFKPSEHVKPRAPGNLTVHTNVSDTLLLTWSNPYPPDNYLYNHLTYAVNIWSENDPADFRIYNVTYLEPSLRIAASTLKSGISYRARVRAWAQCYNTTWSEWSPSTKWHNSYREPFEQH

Binder	Kd [1] [µM]	Kd [2] [µM]	fold increase in binding affinity against MAR-IL4 [3] [fold]
RMKQLEKKVERCLKRLYRNEWEVIRLKKLVG (modifications not checked) [12CNMAR-IL4]	5	–	–
RMKQLEKKVERLLKRNYRLENEVARLKKLVG (modifications not checked) [Model 2a]	2160	2000	–
RMKQLEKKVERCLKRNYRLEWEVIRLKKLVG (modifications not checked) [12CMAR-IL4]	5	–	5
RMKQLEKKVERLLKRNYRLEWEVARLKKLVG (modifications not checked) [Model 2c]	106	100	–
RMKQLEKKVERLLKRNYRLENEVIRLKKLVG (modifications not checked) [Model 2b]	193	–	–
RMKQLEKKVERLLKRNYRLEWEVIRCKKLVG (modifications not checked) [26CMAR-IL4]	5 to 10	–	5
RMKQLEKKVERLLKRNYRLEWEVIRLKKLVG (modifications not checked) [MAR-IL4]	26	–	–
